Numbered stars: 1 amine (or outer) side, 2 acyl side, 3 side chain; on linkers, the order of the positions; unused ones are H or OH. Square brackets hold non-standard residues; d marks the D form. Side chains are listed from the residue outwards. Ends that are not written are not given here. * marks the point of attachment. C18 diacid = O=C(O)CCCCCCCCCCCCCCCCC(=O)*; γGlu = O=C(O)[C@H](CCC(=O)[*:2])N[*:1]; AEEA = NCCOCCOCC(=O)O
B1: N^α-([Leu^27]Glucagonyl) … (peptide)
peptide: HSQGTFTSDYSKYLDSRRAQDFVQWLLNTK
modifications: C-terminal Lys (position 30): N-epsilon acylated with the substituent printed in the name
B2: N^α-([His^24,Leu^27]-Glucagonyl)-N^ε[(4S)-4-carboxy-4-[[(4S)-4-carboxy-4-[[2-[2-[2-[[2-[2-[2-[[(4S)-4-carboxy-4-(17-carboxyheptadecanoylamino)butanoyl]amino]eth … (peptide)
peptide: HSQGTFTSDYSKYLDSRRAQDFVHWLLNTK
modifications: C-terminal Lys (position 30): N-epsilon acylated with the substituent printed in the name

The binders below were run against T1, glucagon receptor (UniProt P47871 26-477, limits assumed) (assay: cell-based or functional assay).
T1 sequence (P47871 26-477 limits assumed): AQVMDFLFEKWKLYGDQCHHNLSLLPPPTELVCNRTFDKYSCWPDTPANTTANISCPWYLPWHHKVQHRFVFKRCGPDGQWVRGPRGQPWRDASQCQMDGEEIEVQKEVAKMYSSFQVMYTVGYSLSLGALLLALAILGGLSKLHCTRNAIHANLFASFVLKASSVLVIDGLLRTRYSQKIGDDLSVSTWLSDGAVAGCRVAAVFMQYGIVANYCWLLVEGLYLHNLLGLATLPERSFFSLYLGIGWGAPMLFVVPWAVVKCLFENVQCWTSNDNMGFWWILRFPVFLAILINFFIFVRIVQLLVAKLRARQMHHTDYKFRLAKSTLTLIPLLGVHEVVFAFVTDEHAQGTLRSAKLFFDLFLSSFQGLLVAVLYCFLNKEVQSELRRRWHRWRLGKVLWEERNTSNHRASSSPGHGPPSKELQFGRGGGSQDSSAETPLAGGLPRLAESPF

Compared with HSQGTFTSDYSKYLDSRRAQDFVQK([AEEA-AEEA-γGlu-C18 diacid])LLNT, HSQGTFTSDYSKYLDSRRAQDFVQWLLK([γGlu-γGlu-AEEA-AEEA-γGlu-C18 diacid])T is 2.8-fold lower in “Assay (I) Glucagon [EC50]” value: 0.155 nM for the first, 0.055 nM for the second.

Going from HSQGTFTSDYSKYLDSRRAQDFVQWLLNK([γGlu-γGlu-AEEA-AEEA-γGlu-C18 diacid]) to HSQGTFTSDYSKYLDSRRAQDFVQWLLK([AEEA-AEEA-γGlu-C18 diacid])T, the “Assay (I) Glucagon [EC50]” value falls from 0.095 nM to 0.022 nM (4.3-fold).

Compared with HSQGTFTSDYSKYLDK([AEEA-AEEA-γGlu-C18 diacid])KKAQEFVQWLLNT, B1 is 2.8-fold higher in “Assay (I) Glucagon [EC50]” value: 0.02 nM for the first, 0.056 nM for the second.

Target: T1, glucagon receptor
Assay: cell-based or functional assay
Remark: another data set of the same source

First: HSQGTFTSDYSRYLDSRRAQDFVK([γGlu-γGlu-AEEA-AEEA-γGlu-C18 diacid])WLLNT
Second: HSQGTFTSDYSKYLDSRRAQDFVQWLK([γGlu-γGlu-AEEA-AEEA-γGlu-C18 diacid])NP
The “Assay (I) Glucagon [EC50]” value of the first is 9.2-fold lower: 0.127 nM for the first, 1.17 nM for the second.

First: HSQGTFTSDYSKYLDSRRAQDFVK([γGlu-γGlu-AEEA-AEEA-γGlu-C18 diacid])WLLNP
Second: HSQGTFTSDYSKYLDSRRAQDFVK([γGlu-γGlu-γGlu-C18 diacid])WLLST
The “Assay (I) Glucagon [EC50]” value of the first is 1.7-fold higher: 0.156 nM for the first, 0.094 nM for the second.

First: HSQGTFTSDYSKYLDK([γGlu-γGlu-AEEA-AEEA-γGlu-C18 diacid])RRAQEFVQRLLNT
Second: HSQGTFTSDYSKYLDK([AEEA-AEEA-γGlu-γGlu-γGlu-C18 diacid])RRAQDFVQWLLNT
The “Assay (I) Glucagon [EC50]” value of the first is 5.6-fold higher: 0.45 nM for the first, 0.081 nM for the second.

First: HSQGTFTSDYSKYLDSRRAQDFVKWLLNTP (Lys 24: N-epsilon acylated with the substituent printed in the name)
Second: HSQGTFTSEYSKYLDSRRAQDFVK([γGlu-γGlu-AEEA-γGlu-C18 diacid])WLLST
The “Assay (I) Glucagon [EC50]” value of the first is 15-fold lower: 0.142 nM for the first, 2.2 nM for the second.

First: B2
Second: HSQGTFTSDYSKYLDSRRAQDFVQWLLK([γGlu-γGlu-AEEA-AEEA-γGlu-C18 diacid])T
The “Assay (I) Glucagon [EC50]” value of the first is 1.8-fold higher: 0.1 nM for the first, 0.055 nM for the second.

Going from HSQ[dF]TFTSDYSKYLDSRRAQDFVK([γGlu-γGlu-AEEA-AEEA-γGlu-C18 diacid])WLLST to HSQGTFTSDYSKYLDSRRAQDFVQWLLK([γGlu-γGlu-γGlu-C18 diacid])T, the “Assay (I) Glucagon [EC50]” value rises from 0.044 nM to 0.141 nM (3.2-fold).

HSQGTFTSDYSKYLDSRRAQDFVQWLLK([AEEA-AEEA-γGlu-γGlu-γGlu-C18 diacid])T and HSQGTFTSDYSKYLDSRRAQDFVK([AEEA-AEEA-γGlu-γGlu-γGlu-C18 diacid])WLLST are within 1.5-fold of each other in “Assay (I) Glucagon [EC50]” value: 0.116 nM for the first, 0.115 nM for the second.

HSQGTFTSDYSKYLDK([γGlu-γGlu-AEEA-AEEA-γGlu-C18 diacid])RRAQDFVQWLLNT and HSQGTFTSDYSKYLDSRRAEEFVK([γGlu-γGlu-AEEA-γGlu-C18 diacid])WLLST are within 1.5-fold of each other in “Assay (I) Glucagon [EC50]” value: 0.105 nM for the first, 0.12 nM for the second.

HSQGTFTSDYSKYLDSRRAQDFVQWLLNK([γGlu-γGlu-AEEA-AEEA-γGlu-C18 diacid]) and HSQGTFTSDYSKYLDK([γGlu-AEEA-AEEA-γGlu-γGlu-C18 diacid])RRAQDFVQWLLNT are within 1.5-fold of each other in “Assay (I) Glucagon [EC50]” value: 0.095 nM for the first, 0.122 nM for the second.

Compared with HSQGTFTSDYSKYLDSRRAQDFVQWLLK([γGlu-γGlu-AEEA-AEEA-γGlu-C18 diacid])P, HSQGTFTSDYSKYLDSRRAK([γGlu-γGlu-AEEA-AEEA-γGlu-C18 diacid])DFVQWLLNT is 3.3-fold lower in “Assay (I) Glucagon [EC50]” value: 0.189 nM for the first, 0.058 nM for the second.

HSQGTFTSDYSKYLDSRRAQDFVK([γGlu-AEEA-AEEA-γGlu-γGlu-C18 diacid])WLLST and HSQGTFTSDYSKYLDSRRAQDFVQWLLK([γGlu-γGlu-AEEA-AEEA-γGlu-C18 diacid])TP are within 1.5-fold of each other in “Assay (I) Glucagon [EC50]” value: 0.106 nM for the first, 0.128 nM for the second.

Compared with HSQGTFTSDYSKYLDSRRAEDFVK([γGlu-γGlu-AEEA-AEEA-γGlu-C18 diacid])WLLST, HSQGTFTSDYSKYLDSRRAQEFVK([γGlu-γGlu-AEEA-γGlu-C18 diacid])WLLST is 5.8-fold lower in “Assay (I) Glucagon [EC50]” value: 0.307 nM for the first, 0.053 nM for the second.

Going from HSQGTFTSDYSK([γGlu-γGlu-AEEA-AEEA-γGlu-C18 diacid])YLDSRRAQDFVQWLLNP to B1, the “Assay (I) Glucagon [EC50]” value falls from 1.58 nM to 0.056 nM (28-fold).

Compared with HSQGTFTSDYSKYLDSRRAQDFVQWLLK([γGlu-AEEA-AEEA-γGlu-γGlu-C18 diacid])T, HSQGTFTSDYSRYLDSRRAQDFVQWLK([γGlu-γGlu-AEEA-AEEA-γGlu-C18 diacid])NP is 23-fold higher in “Assay (I) Glucagon [EC50]” value: 0.093 nM for the first, 2.11 nM for the second.

For HSQGTFTSDYSKYLDSRRAQDFVQK([γGlu-γGlu-AEEA-AEEA-γGlu-C18 diacid])LLNT, the “Assay (I) Glucagon [EC50]” value was 0.988 nM.

From patent US20130143798A1 (Novo Nordisk, published 2013)
